Values of other authors as cited in article PMC5540906.
Several values for one entry are separate records, joined by “and”; a condition that tells them apart may be missing. Equal values may be shown once.

Tests used:
[1] = molecular target: DnaK (Thermus thermophilus) (UniProt Q72IK5)
[2] = molecular target: ClpP tetradecamer (Escherichia coli) (UniProt P0A6G7); test: activity measurements
UniProt P0A6G7, sequence (P0A6G7 15-207): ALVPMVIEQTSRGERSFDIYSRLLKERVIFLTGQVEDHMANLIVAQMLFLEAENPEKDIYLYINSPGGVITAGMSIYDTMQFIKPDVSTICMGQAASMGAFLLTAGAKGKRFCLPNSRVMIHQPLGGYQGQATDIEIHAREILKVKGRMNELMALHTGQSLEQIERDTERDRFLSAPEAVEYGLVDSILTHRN

UniProt Q72IK5, sequence (Q72IK5 whole entry): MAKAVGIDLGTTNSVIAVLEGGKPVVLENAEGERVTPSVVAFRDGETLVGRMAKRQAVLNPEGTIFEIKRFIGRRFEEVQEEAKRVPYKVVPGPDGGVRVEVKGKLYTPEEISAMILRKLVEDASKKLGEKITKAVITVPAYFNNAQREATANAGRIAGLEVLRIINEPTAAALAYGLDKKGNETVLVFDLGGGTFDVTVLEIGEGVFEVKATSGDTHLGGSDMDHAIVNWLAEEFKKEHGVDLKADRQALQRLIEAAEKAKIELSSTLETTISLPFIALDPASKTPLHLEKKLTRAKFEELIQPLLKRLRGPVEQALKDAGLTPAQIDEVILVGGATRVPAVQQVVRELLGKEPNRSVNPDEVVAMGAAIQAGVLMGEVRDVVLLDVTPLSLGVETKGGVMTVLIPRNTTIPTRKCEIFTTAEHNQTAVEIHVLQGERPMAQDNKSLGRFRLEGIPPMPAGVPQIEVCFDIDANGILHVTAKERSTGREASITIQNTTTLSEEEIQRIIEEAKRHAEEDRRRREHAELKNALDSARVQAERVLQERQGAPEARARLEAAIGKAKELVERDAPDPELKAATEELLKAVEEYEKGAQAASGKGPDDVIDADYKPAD

| Substance | Kd [1] | Kd [2] |
| --- | --- | --- |
| ClpB (from UniProt Q72IK9) | 17 µM and 25 µM |  |
| ClpA hexamer (from UniProt P0ABH9) |  | 0.004 µM |
